For one substance, Kd results are on record in paper PMC4914113, “Another look at the mechanism involving trimeric dUTPases in Staphylococcus aureus pathogenicity island induction involves novel players in the party” (Nucleic Acids Research, 2016).

By Kd is commonly meant the concentration at which binding is half-saturated. Low readings indicate higher affinity, high ones lower affinity.

In the experiment the target is Dut80α^G164S (Staphylococcus aureus phage 80α). The experiment can be described thus: BLI; as a1, buffer STL supplemented with 0.5 mM dUPNPP (baselines and dissociation without nucleotide); 1:1 model.

The substance “Stl repressor from SaPIbov1 (natural protein)” showed a dissociation constant (Kd) above 1000 nM.
